Each block holds one binder with its values, some of them ahead of it.
Experiments:
[1] = molecular target: human BTN3A1 recombinant protein with his tag (h-BTN3A1-his) (human) (UniProt O00481); experiment: ELISA, plate coated with h-BTN3A1-his 1 ug/mL, B cell supernatant
[2] = molecular target: human BTN3A1 expressed on HEK293 cells (human) (UniProt O00481); experiment: flow cytometry, HEK293 cells transiently expressing human BTN3A1, B cell supernatant
[3] = molecular target: BTN3A protein on SKOV-3 cells; experiment: cell-based or functional assay

Chain of human BTN3A1 expressed on HEK293 cells (human) (O00481 30-513): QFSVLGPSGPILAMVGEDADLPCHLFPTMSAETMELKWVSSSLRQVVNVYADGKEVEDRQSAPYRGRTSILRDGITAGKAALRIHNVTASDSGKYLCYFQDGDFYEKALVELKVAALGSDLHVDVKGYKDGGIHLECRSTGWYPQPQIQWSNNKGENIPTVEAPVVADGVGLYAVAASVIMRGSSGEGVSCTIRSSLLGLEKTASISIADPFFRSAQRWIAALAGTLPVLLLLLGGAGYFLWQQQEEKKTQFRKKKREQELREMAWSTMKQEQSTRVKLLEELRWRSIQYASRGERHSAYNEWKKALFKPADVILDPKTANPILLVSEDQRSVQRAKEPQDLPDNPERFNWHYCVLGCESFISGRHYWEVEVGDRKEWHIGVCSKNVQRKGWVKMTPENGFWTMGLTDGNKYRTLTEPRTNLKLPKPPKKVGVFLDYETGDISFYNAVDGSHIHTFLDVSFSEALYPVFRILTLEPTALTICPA
Chain of human BTN3A1 recombinant protein with his tag (h-BTN3A1-his) (human) (O00481 30-254 limits assumed): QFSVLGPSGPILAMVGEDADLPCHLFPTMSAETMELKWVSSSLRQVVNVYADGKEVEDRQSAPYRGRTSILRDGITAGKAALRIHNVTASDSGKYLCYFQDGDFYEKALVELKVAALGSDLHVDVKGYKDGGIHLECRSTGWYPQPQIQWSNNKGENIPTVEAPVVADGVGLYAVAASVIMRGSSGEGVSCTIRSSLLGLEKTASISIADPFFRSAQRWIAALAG

ELISA (OD 450) [1]: 2.1 OD450
MFI [2]: 190000 MFI
Percentage (%) [2]: 98.3%
B1: anti-BTN3A1 rabbit-derived monoclonal antibody r20A3 (antibody, V domains shown)
VH: QSVEESGGRLVTPGTPLTLTCTASGFTINNYYMNWVRQAPGKGLEWIGIIYGSDNTYYASWAKGRFTISKTSTTVDLIMTSPTTEDTATYFCVRNLDYSSAYFHIWGPGTLVTVSS
VL: QVLTQTPSPVSAAVGGTVSISCQASQSVYNNNRLAWYQQKPGQPPNLLIYEASKLASGVPSRFKGSGSGTQFTLIISEVQCEDAATYYCQGYYSGFIYPFGGGTEVVVK

EC50 of IFNγ secretion by Vγ9Vδ2 T cells co-cultured with SKOV-3 cells [3]: 0.284 nM
Maximum IFNγ (pg/mL), Vγ9Vδ2 T cells co-cultured with SKOV-3 cells [3]: 2470 pg/mL
B2: 20A3-H2L2 (antibody, human IgG1, kappa)
heavy: EVQLVESGGGLVQPGGSLRLSCAASGFTINNYYMNWVRQAPGKGLEWVSIIYGSDNTYYASWAKGRFTISKDNSKNTVYLQMNSLRAEDTAVYYCVRNLDYSSAYFHIWGQGTLVTVSSASTKGPSVFPLAPSSKSTSGGTAALGCLVKDYFPEPVTVSWNSGALTSGVHTFPAVLQSSGLYSLSSVVTVPSSSLGTQTYICNVNHKPSNTKVDKRVEPKSCDKTHTCPPCPAPEFEGGPSVFLFPPKPKDTLMISRTPEVTCVVVDVSHEDPEVKFNWYVDGVEVHNAKTKPREEQYNSTYRVVSVLTVLHQDWLNGKEYKCKVSNKALPASIEKTISKAKGQPREPQVYTLPPSREEMTKNQVSLTCLVKGFYPSDIAVEWESNGQPENNYKTTPPVLDSDGSFFLYSKLTVDKSRWQQGNVFSCSVMHEALHNHYTQKSLSLSPGK
light: DIQLTQSPSSLSASVGDRVTITCQASQSVYNNNRLAWYQQKPGKPPKLLIYEASKLASGVPSRFSGSGSGTDFTLTISSLQPEDVATYYCQGYYSGFIYPFGGGTKVEIKRTVAAPSVFIFPPSDEQLKSGTASVVCLLNNFYPREAKVQWKVDNALQSGNSQESVTEQDSKDSTYSLSSTLTLSKADYEKHKVYACEVTHQGLSSPVTKSFNRGEC

ELISA (OD 450) [1]: 1.84 OD450
MFI [2]: 444000 MFI
Percentage (%) [2]: 99%
B3: anti-BTN3A1 rabbit-derived monoclonal antibody r17G4 (antibody, V domains shown)
VH: QSLEESGGRLVTPGTPLTLTCTASGFSLNDYYITWVRQAPGKGLEWIGVIYGSSNTVYASWAKGRFTISKTSTMVDLRITSPTTEDTATYFCARGYLASSADIWGPGTLVTVSL
VL: QVLTQTPSPVSAAVGGTVTINCQSSQSVYNNNRLAWYQQKPGQPPKLLIYDASTLASGVPSRFKGSGSGTDFTLTISDLECADAATYYCQTYYSGYIWAFGGGTEVVVK
